Laboratory results taken from patent publication US20200277361A1 (PROTHENA BIOSCIENCES, published 2020).

What was measured:
[1] = biological target: T1, pH4.0-treated TTR (human, UniProt P02766 21-147); assay: ELISA on pH4-treated TTR captured on an anti-His coated plate, anti-mouse HRP detection, OD450
[2] = biological target: T1, pH4.0-treated TTR; assay: ELISA, pH4-TTR captured on anti-His coated plate
[3] = biological target: recombinant human TTR F87M/L110M (human, UniProt P02766 21-147); assay: SPR, mAb captured on anti-mouse IgG chip, TTR F87M/L110M as analyte
[4] = biological target: T1, pH4.0-treated TTR; assay: Sandwich ELISA (pH4-TTR)

B1: mouse antibody 5A1 (antibody, IgG1, V domains shown)
VH: EVKLVESGGGLVRPGGSLKLSCAASGFTFSNYAMSWVRQTPEKRLEWVASISSGGSTYYPDSVKGRFTISRDNARNILYLQMSSLRSEDTAMYYCVRYYYGQYFDFWGQGTALTVSS
VL: DIVMTQSHKFMSTSVGDRVSITCKASQDVSTTVAWYRQKPGQSPELLIYSASYRCTGVPDRFTGSGSGADFTFTISSVQAEDLAVYYCQQHYSTPLTFGAGTKLELK
notes: also called m5A1; mis-TTR antibody 5A1
[1]
  EC50 (read off the curve): ~0.3 µg/mL
[2]
  Kd: 23 nM
[3]
  Kd: 7.68 nM
  koff: 0.000469 s⁻¹
  kon: 61100 M⁻¹ s⁻¹
[4]
  Kd: 21.3 nM
